Reference: US20230151091A1 (NEW YORK UNIVERSITY, published 2023)
Changes are numbered by the printed parent chain.

T1: human MuSK (human, UniProt O15146 24-495)
T1 construct: Recombinant protein coated on ELISA plates (R&D Systems cat. 10189-MK) or on the Biacore chip; also called human muscle-specific tyrosine protein kinase; full length human MuSK
T1 sequence: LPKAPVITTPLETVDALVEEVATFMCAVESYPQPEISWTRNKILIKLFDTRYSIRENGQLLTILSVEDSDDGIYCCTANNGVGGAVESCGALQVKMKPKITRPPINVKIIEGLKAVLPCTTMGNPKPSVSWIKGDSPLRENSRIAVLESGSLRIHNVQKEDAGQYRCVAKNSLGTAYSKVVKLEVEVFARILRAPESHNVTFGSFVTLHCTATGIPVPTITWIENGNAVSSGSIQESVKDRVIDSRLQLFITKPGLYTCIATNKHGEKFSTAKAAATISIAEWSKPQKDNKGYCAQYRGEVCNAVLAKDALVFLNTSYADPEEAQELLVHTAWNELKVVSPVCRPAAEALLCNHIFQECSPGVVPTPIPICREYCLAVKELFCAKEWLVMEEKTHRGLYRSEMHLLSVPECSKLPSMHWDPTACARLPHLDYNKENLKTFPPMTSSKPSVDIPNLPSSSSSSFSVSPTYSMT

T2: mouse MuSK (mouse, UniProt Q61006 22-494, limits assumed)
T2 construct: Coated on ELISA plates or on the Biacore chip; also called full length mouse MuSK; mouse MuSK (in house produced in HEK293 cells)
T2 sequence (looked up): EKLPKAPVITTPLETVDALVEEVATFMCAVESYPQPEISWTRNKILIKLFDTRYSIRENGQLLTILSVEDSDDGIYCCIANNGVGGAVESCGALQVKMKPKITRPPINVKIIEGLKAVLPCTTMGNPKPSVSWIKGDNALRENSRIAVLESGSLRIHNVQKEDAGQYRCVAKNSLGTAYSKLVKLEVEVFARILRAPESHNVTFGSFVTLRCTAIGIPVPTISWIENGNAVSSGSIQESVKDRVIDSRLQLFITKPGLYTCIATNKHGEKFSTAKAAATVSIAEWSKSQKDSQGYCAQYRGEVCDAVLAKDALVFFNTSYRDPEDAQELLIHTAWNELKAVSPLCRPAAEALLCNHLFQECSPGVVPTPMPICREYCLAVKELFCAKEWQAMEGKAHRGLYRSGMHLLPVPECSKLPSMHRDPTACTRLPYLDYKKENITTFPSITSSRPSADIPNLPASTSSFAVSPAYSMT

B1: X2m4 Fab (Fab, V domains shown)
VH: EVQLVESGGGLVQPGGSLRLSCAASGFTVSSSSIHWVRQAPGKGLEWVASISSSYGSTSYADSVKGRFTISADTSKNTAYLQMNSLRAEDTAVYYCARSEGDRYVSGYSGLDYWGQGTLVTVSS
VL: DIQMTQSPSSLSASVGDRVTITCRASQSVSSAVAWYQQKPGKAPKLLIYSASSLYSGVPSRFSGSRSGTDFTLTISSLQPEDFATYYCQQSGVWLITFGQGTKVEIK
notes: Fab format
B2: X9 Fab (Fab, V domains shown)
VH: EVQLVESGGGLVQPGGSLRLSCAASGFTFSSSSIHWVRQAPGKGLEWVASIYSSSGSTYYADSVKGRFTISADTSKNTAYLQMNSLRAEDTAVYYCARSGGEFYITSYYGMDYWGQGTLVTVSS
VL: B1 VL with G92S, V93S, W94S
notes: Fab format
B3: 3B2g2m1 Fab (Fab, V domains shown)
VH: EVQLLESGGGLVQPGGSLRLSCAASGFTFSDYGMSWVRQAPGKGLEWVSAIPWSGGSTYYKESVKGRFTISRDNSKNTLYLQMNSLRAEDTAVYYCAKRSGRIAFGALDAWGQGTLVTVSS
VL: QTVVTQEPSFSVSPGGTVTLTCGLSSGSVTSSNYPDWYQQTPGQAPRTLIYSTDSRHSGVPDRFSGSILGNKAALTITGAQADDESDYYCGLYSYSGSKNYVFGGGTKLTVL
notes: Fab format

These binders were tested against T1, human MuSK (assay: Biacore T200, off rate at pH 5.5 against pH 7.4).
Protocol: (§1) In order to study pH dependent binding of the antibodies described herein to MuSK, a Biacore T200 was used. Briefly, a CMS chip was coated with human and mouse MuSK (200RU) and 22.2 nM of Fab was applied and kinetic parameters calculated. Association was done at pH7.4, dissociation was done at pH 7.4 and also at pH 5.5. The following Fabs were tested, X2, X2m4, X3, X9, X17, 3B2 and 3B2g2m1 (Table 10 and FIG. 23). […] Binding affinity at pH 5.5 is very low, resulting in a rapid dissociation at endosomal pH allowing 3B2g2m1 to recycle.
With B1 the “Ratio pH 5.5/7.4 of off rate” value was 0.7.
In the case of B2, the “Ratio pH 5.5/7.4 of off rate” value is reported as 1.4.
In the case of B3, the “Ratio pH 5.5/7.4 of off rate” value is reported as 6.1.

What follows are binders tested against T2, mouse MuSK (assay: Biacore T200, off rate at pH 5.5 against pH 7.4).
Protocol: as §1
B1 was tested, and the “Ratio pH 5.5/7.4 of off rate” value was 1.2.
With B2 the “Ratio pH 5.5/7.4 of off rate” value was 7.1.
With B3 the “Ratio pH 5.5/7.4 of off rate” value was 8.9.

These binders were tested against T1, human MuSK (assay: Biacore T200, MuSK on chip (200RU), 22.2 nM Fab, dissociation pH 5.5).
Protocol: as §1
B1 showed a koff of 0.00586 s⁻¹.
For B2, the koff was 0.00083 s⁻¹.
B3 gave a koff of 0.0288 s⁻¹.

What follows are binders tested against T2, mouse MuSK in the same assay as above.
Protocol: as §1
B1 showed a koff of 0.00416 s⁻¹.
Binder B2 has a koff of 0.00105 s⁻¹.
B3 showed a koff of 0.0679 s⁻¹.

What follows are binders tested against T1, human MuSK (assay: Biacore T200, MuSK on chip (200RU), 22.2 nM Fab, dissociation pH 7.4).
Protocol: as §1
Work on B1 yielded a koff of 0.00867 s⁻¹.
For B2, the koff was 0.00059 s⁻¹.
B3 gave a koff of 0.00472 s⁻¹.

These binders were tested against T2, mouse MuSK in the same assay as above.
Protocol: as §1
In the case of B1, the koff is reported as 0.00337 s⁻¹.
Binder B2 has a koff of 0.00015 s⁻¹.
In the case of B3, the koff is reported as 0.00766 s⁻¹.
